From paper PMC9633789 (Nature Communications, 2022)

Target: the molecule itself
Experiment: SEC; Superose 6 Increase 10/300 GL; 25 mM HEPES-KOH pH 8.0, 100 mM NaCl, 5 mM MgCl2, 1 mM DTT, 10% sucrose; step of the purification of His-p97

B1: His-p97 (recombinant Xenopus p97) (enzyme, UniProt P23787 1-805, looked up)
chain: MASGSDTKSDDLSTAILKQKSRPNRLIVDESINEDNSMVSLSQAKMDELQLFRGDTVLLKGKKRREAVCIVLSDDTCSDEKIRMNRVVRNNLRVRLGDVISIQPCPDVKYGKRVHVLPIDDTVEGITGNLFEVYLKPYFLEAYRPIRKGDIFLVRGGMRAVEFKVVETDPSPYCIVAPDTVIHCEGEPIKREDEEESLNEVGYDDIGGCRKQLAQIKEMVELPLRHPALFKAIGVKPPRGILLYGPPGTGKTLIARAVANETGAFFFLINGPEIMSKLAGESESNLRKAFEEAEKNAPAIIFIDELDAIAPKREKTHGEVERRIVSQLLTLMDGLKQRAHVIVMAATNRPNSIDPALRRFGRFDREVDIGIPDSTGRLEILQIHTKNMKLSDDVDLEQVANETHGHVGADLAALCSEAALQAIRKKMDLIDLEDETIDAEVMNSLAVTMDDFRWALSQSNPSALRETVVEVPQVTWEDIGGLEDVKRELQELVQYPVEHPDKFLKFGMTPSKGVLFYGPPGCGKTLLAKAIANECQANFISIKGPELLTMWFGESEANVREIFDKARQAAPCVLFFDELDSIAKARGGNIGDGGGAADRVINQILTEMDGMSIKKNVFIIGATNRPDIIDPAILRPGRLDQLIYIPLPDEKSRMAILKANLRKSPVAKDVDVDFLAKMTNGFSGADLTEICQRACKLAIRESIENEIRRERDRQTNPSAMEVEEDDPVPEIRRDHFEEAMRFARRSVSDNDIRKYEMFAQTLQQSRGFGSFRFPAGGQSGAGPSPGAGGGSGGGHFTEEDDDLYG
notes: p97, Xenopus; source: E. coli Rosetta 2 (DE3), purified (HisTrap HP, Superose 6 Increase)
  stoichiometry N: 6
